Measured values published in US20240069033A1, “METHOD FOR SCREENING FOR CANDIDATE MOLECULE CAPABLE OF FORMING COMPLEX IN CONJUNCTION WITH PLURALITY OF TARGET MOLECULES” (Chugai Seiyaku Kabushiki Kaisha, priority 2020, published 2024).
No end group written: not given here.

Experiments:
[1] = test system: anti-ubiquitin antibodies (Mouse IgG1 monoclonal antibody; clone name FK2); assay: Complementation assay of splitUbiquitin using mRNA display (anti-ubiquitin antibody beads, qPCR); type: binding
Excerpt: As described above, screening a library for a candidate molecule capable of forming a complex with a plurality of target molecules requires a system that suppresses the recovery rate of a test molecule that forms a complex with only one target molecule. […] Ubiquitin I13A variants were used in the experiment. In this Example, the ubiquitin N-terminal fragment to which a GS linker is attached at the C-terminus is referred to as splitUb(N), the ubiquitin C-terminal fragment to which a GS linker is attached at the C-terminus is referred to as splitUb(C), and the protein in which splitUb(N) and splitUb(C) are linked by a GSGS linker and to which a GS linker is attached at the C-terminus is referred to as splitUb(N-C).
To simultaneously evaluate the interactions of the ubiquitin N-terminal fragment and the C-terminal fragment when they are independent, the conditions of mixing the display molecule of splitUb(N) and the display molecule of splitUb(C) at 1: 1 were reacted in the same way.

splitNanoluc1-8 = target: T1, splitNanoluc1-8 (Oplophorus gracilirostris, UniProt Q9GV45, A31E/A60N/A81I/D135N/F58L/F95D/G42A/G62A/G78A/G94A/G98A/H120P/I103V/I117V/I134L/K70R/L54V/L73R/L99Q/M102E/N171T/P142E/Q151K/Q38E/Q45L/V71I/Y165I); assay: Complementation assay of split Nanoluc using mRNA display (pull-down with biotinylated splitNanoluc1-8, qPCR); type: binding; settings: for Recovered nucleic acid amount (molecules): 33 nM Display molecule + 1 μM biotinylated splitNanoluc1-8, room temperature 1 hour, streptavidin pull-down, TEV elution, qPCR; for Recovery rate (%): apparent recovery rate corrected with display efficiency; for Apparent recovery rate (%): recovered/input nucleic acid amount
T1 construct: made in house
Procedure: Thus, each binding ability of splitNanoluc-9 (SEQ ID NO: 66), splitNanoluc-10 (SEQ ID NO: 67), and splitNanoluc9-10 fusion peptide (SEQ ID NO: 65) to splitNanoluc1-8 (SEQ ID NO: 85) was evaluated.
Display molecules in which mRNA and a peptide are linked were prepared, and the recovery rate with biotinylated splitNanoluc1-8 was examined.

T1 sequence (Q9GV45 other isoform, or with tags, fused parts or gaps with the stated changes): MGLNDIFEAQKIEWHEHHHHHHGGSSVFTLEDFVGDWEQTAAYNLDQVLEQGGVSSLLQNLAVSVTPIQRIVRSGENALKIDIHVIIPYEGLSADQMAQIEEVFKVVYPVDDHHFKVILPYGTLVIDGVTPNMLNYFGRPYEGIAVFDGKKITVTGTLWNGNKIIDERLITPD

Substance | Recovered nucleic acid amount (molecules) ([1]; anti-ubiquitin antibody (FK2) magnetic beads, room temperature 1 hour, qPCR) | Recovery rate (%) ([1]; apparent recovery rate corrected with display efficiency) | Apparent recovery rate (%) ([1]; recovered/input nucleic acid amount) | Recovered nucleic acid amount (molecules) (splitNanoluc1-8) | Recovery rate (%) (splitNanoluc1-8) | Apparent recovery rate (%) (splitNanoluc1-8)
splitUb (N): mRNA Display molecule of ubiquitin (I13A) N-terminal fragment with GS linker (SEQ ID NO: 45) (MMQIFVKTLTGKTATLEVEPSDTIENVKAKIQDKEGIPGSGSGSGSKK; also: mRNA display linkage) | 1.63E+10 molecules | 1.040% | 0.931% | – | – | –
splitNanoluc-10: mRNA Display molecule of Nanoluc 10th strand with GS linker and TEV sequence (SEQ ID NO: 67) (MVSGWRLFKKISGSGSGSGSENLYFQGKK; also: mRNA display conjugate) | – | – | – | 5.04E+06 molecules | 0.016% | 0.011%
splitNanoluc9-10: mRNA Display molecule of Nanoluc 9th and 10th strands linked by GS linker, with TEV sequence (SEQ ID NO: 65) (MGSMLFRVTINSGGGSGGGGSGVSGWRLFKKISGSGSGSGSENLYFQGKK; also: mRNA display conjugate) | – | – | – | 3.45E+09 molecules | 33.155% | 12.632%
splitNanoluc-9: mRNA Display molecule of Nanoluc 9th strand with GS linker and TEV sequence (SEQ ID NO: 66) (MGSMLFRVTINSGSGSGSGSENLYFQGKK; also: mRNA display conjugate) | – | – | – | 2.53E+06 molecules | 0.049% | 0.008%
